Measured values as given in patent US12186436B2, “Triblock copolymer stabilizers for the formation of nanoparticles encapsulating soluble biologics, therapeutics, and imaging agents” (The Trustees of Princeton University, priority 2018, dated 2025).

Experiment: Release of biologic from nanoparticles in release buffer (fluorescence of soluble biologic after 100 kDa ultrafiltration)
Assay type: physicochemical
Conditions: nanoparticles made by Process 2
Experimental: Release can be studied by diluting the final concentrated nanoparticle solution after ultrafiltration into the desired release buffer. The solutions can then be incubated under the required conditions of temperature and agitation. A suitable method to separate nanoparticles from released biologic can be employed at periodic time points to evaluate the released fraction. In one embodiment, ultrafiltration with a 100 kDa molecular weight cut-off is used to separate released biologic from the nanoparticles containing biologic that is still encapsulated.
Residual acetone and unencapsulated biologic were removed by rinsing on a 100 kDa Amicon ultrafilter that had been pre-blocked to prevent non-specific adsorption. The nanoparticle solution was concentrated to around 15-20 mg/ml and rinsed with deionized water twice using a volume that was about 3-4 times the concentrated volume. The flow-through streams were analyzed by fluorescence to determine encapsulation efficiency. The nanoparticles were resuspended in the indicated release buffer and placed on a shaker table at 37° C. for release. […] Particle size was characterized by Dynamic Light Scattering (DLS) using a Zetasizer Nano ZS.
Temperature was controlled in the centrifugation process to either 5° C. or 20° C. […] The flow-through streams were analyzed by fluorescence to determine encapsulation efficiency. […]

In the case of lysozyme, the “time for lysozyme release to reach 90%” value is reported as 20 to 30 h.
